The text below walks through data of patent US20240002497A1 (Merck Sharp & Dohme, published 2024).

Numbering of substitutions follows the chain as printed. In names and notes the source's numbering stands. Like-named read-outs stand apart in the source and are kept apart here.

Experiment [1] concerns the target huNav1.7α + β1 (human). Description: cell-based or functional assay.
In experiment [2] the target is T1, huNav1.7α+β1 (human, UniProt Q15858 1-1988; Q07699 19-218).
T1 construct: also called huNav1.7-beta1; HEKa/β1
The experiment can be described thus: binding FACS, HEK293 cells. How it is done: (§1) Binding of the ISVDs to cell-expressed Nav1.7α was detected via murine anti-Flag (Sigma, catalog #F1804). Briefly, cells were resuspended in FACS buffer (PBS, 10% FBS, NaN₃) and transferred to a 96-well V-bottom plate at 1×10^5 cells/well. Purified FLAG3-tagged ISVD was diluted in FACS buffer and added to the cells for 30 minutes at 4° C. […] Prior to the read-out, the samples were resuspended in 1 μg/mL propidium iodide (Sigma, catalog #P4170) to exclude dead cells. Between each step, the cells were centrifuged for 5 minutes at 200 grams and washed with 100 μL/well FACS buffer.
(§2) Crude periplasmic extracts containing ISVDs from phage display selections (as described above) were screened in FACS for binding to huNav1.7α but not to huNav1.5a. […] As used in Table 8, the drawings, and throughout the description, Navβ1, Navβ2, and Navβ3 are human homologs unless specifically identified otherwise.

Another experiment has as its target T2, huNav1.5α (human, UniProt Q14524 1-2016).
T2 construct: also called huNav1.5 (alpha subunit)
The experiment can be described thus: binding FACS on stable huNav1.x paralog HEK293T cell lines.

For another experiment, the target named is T3, huNav1.6α (human, UniProt Q9UQD0 1-1980).
T3 construct: also called huNav1.6 (alpha subunit)
T3 sequence (Q9UQD0 whole entry): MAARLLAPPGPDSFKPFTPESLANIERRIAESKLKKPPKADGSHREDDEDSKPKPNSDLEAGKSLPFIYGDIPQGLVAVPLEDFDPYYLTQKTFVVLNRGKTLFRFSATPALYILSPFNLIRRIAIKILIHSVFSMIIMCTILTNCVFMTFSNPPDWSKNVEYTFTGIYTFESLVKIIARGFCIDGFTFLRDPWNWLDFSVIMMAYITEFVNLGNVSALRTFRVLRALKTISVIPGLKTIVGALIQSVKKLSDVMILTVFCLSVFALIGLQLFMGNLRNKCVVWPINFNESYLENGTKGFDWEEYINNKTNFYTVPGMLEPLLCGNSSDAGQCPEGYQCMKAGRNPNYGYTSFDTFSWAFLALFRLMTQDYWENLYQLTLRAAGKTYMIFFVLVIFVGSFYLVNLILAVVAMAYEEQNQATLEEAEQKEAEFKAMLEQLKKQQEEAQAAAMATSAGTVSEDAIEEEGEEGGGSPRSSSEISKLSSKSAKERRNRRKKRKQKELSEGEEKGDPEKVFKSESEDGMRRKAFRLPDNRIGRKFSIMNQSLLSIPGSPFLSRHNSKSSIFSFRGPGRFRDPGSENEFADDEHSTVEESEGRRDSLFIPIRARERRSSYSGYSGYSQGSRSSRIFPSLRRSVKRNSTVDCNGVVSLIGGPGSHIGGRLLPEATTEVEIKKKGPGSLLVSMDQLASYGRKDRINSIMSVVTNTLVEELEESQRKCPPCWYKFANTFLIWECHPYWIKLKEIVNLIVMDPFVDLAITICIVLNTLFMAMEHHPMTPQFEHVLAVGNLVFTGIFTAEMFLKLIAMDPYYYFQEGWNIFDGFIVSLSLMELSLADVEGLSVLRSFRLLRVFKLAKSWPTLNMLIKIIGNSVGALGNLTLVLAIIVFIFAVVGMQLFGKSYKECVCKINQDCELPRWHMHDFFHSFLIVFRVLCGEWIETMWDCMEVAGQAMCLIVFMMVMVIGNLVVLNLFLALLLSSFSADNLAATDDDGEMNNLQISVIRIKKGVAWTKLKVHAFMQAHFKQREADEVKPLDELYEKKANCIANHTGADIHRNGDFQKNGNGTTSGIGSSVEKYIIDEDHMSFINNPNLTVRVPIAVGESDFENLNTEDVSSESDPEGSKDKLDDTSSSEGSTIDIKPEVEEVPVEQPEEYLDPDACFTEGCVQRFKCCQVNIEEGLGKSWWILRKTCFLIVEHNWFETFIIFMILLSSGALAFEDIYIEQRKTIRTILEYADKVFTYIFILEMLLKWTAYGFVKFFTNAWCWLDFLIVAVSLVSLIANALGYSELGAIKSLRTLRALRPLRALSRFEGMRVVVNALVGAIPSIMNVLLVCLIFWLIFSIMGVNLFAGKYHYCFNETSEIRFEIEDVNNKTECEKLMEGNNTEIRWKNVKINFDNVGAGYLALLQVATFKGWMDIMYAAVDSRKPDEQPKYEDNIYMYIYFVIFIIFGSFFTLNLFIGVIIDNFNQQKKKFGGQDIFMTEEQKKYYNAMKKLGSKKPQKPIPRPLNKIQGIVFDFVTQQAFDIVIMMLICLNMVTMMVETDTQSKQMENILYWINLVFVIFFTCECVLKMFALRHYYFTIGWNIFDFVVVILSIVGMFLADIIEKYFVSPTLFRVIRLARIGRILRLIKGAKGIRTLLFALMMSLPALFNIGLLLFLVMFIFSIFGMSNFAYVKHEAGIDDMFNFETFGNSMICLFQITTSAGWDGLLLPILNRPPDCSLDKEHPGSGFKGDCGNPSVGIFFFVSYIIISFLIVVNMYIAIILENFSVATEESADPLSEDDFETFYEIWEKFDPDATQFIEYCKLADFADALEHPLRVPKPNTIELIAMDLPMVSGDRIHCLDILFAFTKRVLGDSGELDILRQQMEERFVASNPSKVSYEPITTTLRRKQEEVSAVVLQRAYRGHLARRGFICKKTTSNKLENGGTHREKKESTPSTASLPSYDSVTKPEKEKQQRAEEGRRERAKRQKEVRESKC
The description is as above.

Another experiment concerns the target T4, huNav1.2α (human, UniProt Q99250 1-2005).
T4 construct: also called huNav1.2 (alpha subunit)
The experiment is described as above.

Another experiment concerns the target huNav1.1α (human, UniProt P35498 1-2009). The experiment is described as above.
In another experiment the target is T5, huNav1.8α (human, UniProt Q9Y5Y9 1-1956).
T5 construct: also called huNav1.8 (alpha subunit)
The experiment is described as above.

A further experiment deals with T6, huNav1.4α (human, UniProt P35499 1-1836).
T6 construct: also called huNav1.4 (alpha subunit)
Described as above.

The next experiment addresses T7, huNav1.3α (human, UniProt Q9NY46 1-2000).
T7 construct: also called huNav1.3 (alpha subunit)
The description is as above.

Experiment [3] has as its target T1, huNav1.7α+β1. The experiment can be described thus: binding FACS, HEKa/β1 cells.
Experiment [4] deals with T8, huNav1.7α+β1-β2-β3 (human, UniProt Q15858 1-1988; Q07699 19-218; O60939 30-215; Q9NY72 23-215).
T8 construct: 5N11S variant; also called huNav1.7-beta1-beta2-beta3; huNav1.7α+Navβ1-Navβ2-Navβ3
The experiment can be described thus: binding FACS, CHO FlpIn cells. The method, then: as §1, §2

In experiment [5] the target is T8, huNav1.7α+β1-β2-β3. The experiment can be described thus: binding FACS, HEK FlpIn cells. The method, then:
as §1, §2

The target in another experiment is T9, huNav1.5α+β1-β2-β3 (human, UniProt Q14524 1-2016; A5A6L6 19-218; O60939 30-215; Q2KI11 23-215).
T9 construct: in the cell P2A cleaves it into α, β1, β2, β3; also called huNav1.5-beta1-beta2-beta3
The experiment can be described thus: binding FACS, HEK FlpIn cells. The method, then:
as §1, §2

In experiment [6] the target is T10, huNav157chimera14+β1-β2-β3 (human, UniProt Q07699 19-218; O60939 30-215; Q9NY72 23-215).
T10 construct: HEK FlpIn line; also called huNav157 chimera 14-beta1-beta2-beta3; Nav157ch14-β1-β2-β3
The experiment can be described thus: binding FACS, HEK FlpIn cells. How it is done:
as §1, §2

Experiment [7] has as its target T11, huNav1.7α (human, UniProt Q15858 1-1988).
T11 construct: HEK cells expressing the α subunit alone; also called HEKa; HEK huNav1.7α
Description: binding FACS, HEKa cells.

Experiment [8] addresses T12, huNav1.7α (human, UniProt Q15858 1-1988).
T12 construct: HEK cells expressing the α subunit without β subunits; also called huNav1.7 (alpha-subunit); Human Nav1.7α
The experiment can be described thus: binding FACS, HEK.

In experiment [9] the target is T13, huNav1.7α + β1 (human).
T13 construct: HEK293 cells; also called huNav1.7-beta1; huNav1.7-β1
The experiment can be described thus: binding FACS, HEK.

In experiment [10] the target is T13, huNav1.7α + β1. Description: cell-based or functional assay. The source holds these as a separate data set.
The target of experiment [11] is rhNav1.7α + β1-β2-β3 (rhesus monkey). The experiment can be described thus: cell-based or functional assay.
Experiment [12] addresses T13, huNav1.7α + β1. The experiment can be described thus: cell-based or functional assay. This is another data set of the same source.
Experiment [13] concerns the target rhNav1.7α + β1-β2-β3 (rhesus monkey). The experiment can be described thus: cell-based or functional assay. The source holds these as a separate data set.
Experiment [14] concerns the target T8, huNav1.7α+β1-β2-β3. The experiment can be described thus: binding FACS, CHO FlpIn cells. In a few lines: (§3)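 Flow cytometry read-out of anti-Flag signal on propidium iodide-negative cells measured ISVD binding. Purified FLAG3-tagged ISVD, diluted in PBS with 10% FBS and NaN₃, was applied to the cells for 30 minutes at 4° C.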
This is another data set of the same source.

For experiment [15], the target named is T1, huNav1.7α+β1. Description: binding FACS, HEKa/β1 cells. In a few lines: as §3
This is another data set of the same source.

A further experiment deals with T14, rhNav1.7α+β1-β2-β3 (rhesus monkey α subunit with human β …).
T14 construct: P2A cleaves it into α, β1, β2, β3; also called rhNav1.7-beta1-beta2-beta3
Description: binding FACS, CHO FlpIn cells. How it is done: as §1, §2

In experiment [16] the target is T11, huNav1.7α. Description: binding FACS, HEKa cells. The procedure, abridged: as §3
This is another data set of the same source.

Experiment [17] addresses T15, rhNav1.7α + β1-β2-β3 (rhesus monkey).
T15 construct: also called rhNav1.7-beta1-beta2-beta3; rhNav1.7-β1-β2-β3
Description: competition FACS vs EC40 of F103275B05(N93R), CHO FlpIn.

In experiment [18] the target is T16, huNav1.7α + β1-β2-β3 (human, UniProt Q15858 1-1988; A5A6L6 19-218; O60939 30-215; Q2KI11 23-215).
T16 construct: also called huNav1.7-beta1-beta2-beta3; huNav1.7-β1-β2-β3
Description: competition FACS vs EC25 of F103275B05(N93R), CHO FlpIn.

Experiment [19] deals with T12, huNav1.7α. Description: competition FACS vs EC25 of F103275B05(N93R), HEK.
Experiment [20] addresses T13, huNav1.7α + β1. Description: competition FACS vs EC25 of F103275B05(N93R), HEK.
The target of experiment [21] is T12, huNav1.7α. The experiment can be described thus: cell-based or functional assay.
Experiment [22] has as its target T16, huNav1.7α + β1-β2-β3. The experiment can be described thus: cell-based or functional assay.
In experiment [23] the target is T15, rhNav1.7α + β1-β2-β3. The experiment can be described thus: cell-based or functional assay. This is another data set of the same source.
The target of a further experiment is Rhesus Nav1.7α (rhesus, UniProt Q15858 1-1988 (human entry)). Description: cell-based or functional assay.
Experiment [24] has as its target T16, huNav1.7α + β1-β2-β3. The experiment can be described thus: competition FACS vs EC25 of F103275B05(N93R), HEK FlpIn.

T4 sequence (Q99250 whole entry): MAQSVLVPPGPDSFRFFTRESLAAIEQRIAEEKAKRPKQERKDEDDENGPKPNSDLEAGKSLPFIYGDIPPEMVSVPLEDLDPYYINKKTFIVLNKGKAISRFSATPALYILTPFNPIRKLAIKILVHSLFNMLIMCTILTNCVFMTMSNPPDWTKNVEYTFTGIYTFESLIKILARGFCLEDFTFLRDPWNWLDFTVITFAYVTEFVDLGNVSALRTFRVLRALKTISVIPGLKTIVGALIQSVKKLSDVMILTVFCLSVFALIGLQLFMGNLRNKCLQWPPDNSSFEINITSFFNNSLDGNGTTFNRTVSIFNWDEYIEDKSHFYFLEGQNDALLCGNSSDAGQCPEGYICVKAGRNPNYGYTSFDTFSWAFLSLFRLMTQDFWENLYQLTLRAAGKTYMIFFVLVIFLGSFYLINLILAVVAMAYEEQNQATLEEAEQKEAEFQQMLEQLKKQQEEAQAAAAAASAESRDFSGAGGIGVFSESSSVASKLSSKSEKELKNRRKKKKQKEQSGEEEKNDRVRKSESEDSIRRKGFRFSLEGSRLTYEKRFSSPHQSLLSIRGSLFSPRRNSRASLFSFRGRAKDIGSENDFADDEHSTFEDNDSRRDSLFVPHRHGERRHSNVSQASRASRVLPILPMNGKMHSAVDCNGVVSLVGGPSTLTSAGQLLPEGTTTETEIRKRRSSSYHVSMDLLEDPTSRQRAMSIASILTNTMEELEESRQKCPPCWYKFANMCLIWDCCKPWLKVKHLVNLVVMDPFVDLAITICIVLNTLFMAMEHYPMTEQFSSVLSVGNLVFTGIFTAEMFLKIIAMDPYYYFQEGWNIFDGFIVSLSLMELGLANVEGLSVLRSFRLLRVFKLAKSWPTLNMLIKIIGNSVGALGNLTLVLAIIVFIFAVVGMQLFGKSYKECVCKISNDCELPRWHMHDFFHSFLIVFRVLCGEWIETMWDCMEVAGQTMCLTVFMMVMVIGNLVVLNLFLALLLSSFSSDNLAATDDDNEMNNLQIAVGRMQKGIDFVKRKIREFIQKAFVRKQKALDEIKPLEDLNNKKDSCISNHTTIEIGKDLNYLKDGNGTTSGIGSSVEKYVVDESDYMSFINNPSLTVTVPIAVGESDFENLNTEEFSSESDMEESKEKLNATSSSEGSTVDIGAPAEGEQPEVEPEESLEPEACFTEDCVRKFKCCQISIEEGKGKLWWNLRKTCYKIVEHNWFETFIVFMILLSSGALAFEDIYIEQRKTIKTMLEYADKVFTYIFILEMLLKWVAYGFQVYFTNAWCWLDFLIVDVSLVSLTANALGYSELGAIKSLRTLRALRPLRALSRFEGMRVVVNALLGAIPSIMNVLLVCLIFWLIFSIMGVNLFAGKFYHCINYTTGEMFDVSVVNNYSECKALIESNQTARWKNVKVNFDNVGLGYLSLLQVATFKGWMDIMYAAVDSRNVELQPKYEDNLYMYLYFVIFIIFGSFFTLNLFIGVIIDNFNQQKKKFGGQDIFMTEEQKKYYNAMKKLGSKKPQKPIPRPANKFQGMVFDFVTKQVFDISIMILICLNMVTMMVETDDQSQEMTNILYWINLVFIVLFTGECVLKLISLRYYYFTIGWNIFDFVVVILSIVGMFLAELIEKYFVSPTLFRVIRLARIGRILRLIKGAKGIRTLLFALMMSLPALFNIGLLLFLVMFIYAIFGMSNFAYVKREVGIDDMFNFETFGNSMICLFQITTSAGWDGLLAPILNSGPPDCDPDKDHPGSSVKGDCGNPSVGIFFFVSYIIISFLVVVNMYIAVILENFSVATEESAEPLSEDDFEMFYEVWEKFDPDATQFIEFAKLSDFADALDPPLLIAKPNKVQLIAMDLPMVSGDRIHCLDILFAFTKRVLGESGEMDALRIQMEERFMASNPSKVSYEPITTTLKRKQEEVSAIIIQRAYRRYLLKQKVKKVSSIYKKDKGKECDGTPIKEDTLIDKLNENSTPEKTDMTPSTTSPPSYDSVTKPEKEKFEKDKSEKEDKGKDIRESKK

B1: F0103362B08 (parental)-FLAG-HIS6 (VHH)
VHH: EVQLVESGGGLVQAGGSLRLSCAASVRPFSTSAMGWFRQAPEKEREAVAGILWNGIVTYYADSVKGRFTISRDNAKNEVYLQMNKLKPEDTAVYYCALDRDYGGRSFSAYEYEYWGQGTLVTVSS
As for B1, the “Qpatch IC50” value with huNav1.7α + β1 [1] is 1 nM.

B2: F0103275B05 (parental)-FLAG-HIS6 (VHH)
VHH: EVQLVESGGGLVQPGGSLRLSCAASGSIFNINSMAWYRRAPGKQRELVASSTNGGSTNYADSVKGRFTISRDNAKRVYLQMNSLTPEDTAVYYCNALLQPSIYDISRTYWGQGTLVTVSS
notes: also called F01033275B05
Usually EC50 stands for the concentration needed to bring the measured effect to its halfway point. Regarding B2, the EC50 worked out at 28 nM with huNav1.7α+β1 [2]; 48 nM with huNav1.7α+β1 [3]; 27 nM with huNav1.7α+β1-β2-β3 [4]; 37 nM with huNav1.7α+β1-β2-β3 [5]; 39 nM in experiment [6]; 10 nM in the experiment with huNav1.7α [7]. In addition, the binding result with huNav1.5α, in the experiment with huNav1.6α, with huNav1.2α, in the experiment with huNav1.1α, with huNav1.8α and with huNav1.4α was “no binding” each time. Further, the binding result with huNav1.3α and in the experiment with huNav1.5α+β1-β2-β3 was “no binding” in each case.

B3: 66ASP (Fc fusion)
chain: B2 VHH with S27P, I28V, S50Y, N53P, G55W, S56D, T57W, N95R, A96W
notes: also called F010300659-5GS-Fc; not shown: 5GS linker; Fc moiety
Regarding B3, the values for the EC50 with huNav1.7α [8] and with huNav1.7α + β1 [9] were 61 nM and 42 nM, respectively. Moreover, the “Qpatch IC50 [M], HEK cells” value was 9.2e-08 M in the experiment with huNav1.7α + β1 [10] and 5.2e-08 M with rhNav1.7α + β1-β2-β3 [11].

B4: F010300659 (VHH)
VHH: B2 VHH with S27P, I28V, S50Y, N53P, G55W, S56D, T57W, N95R, A96W
notes: also called F0103275B05(S27P, I28V, S50Y, N53P, G55W, S56D, T57W, N93R, A94W)-FLAG3 + HIS6
Consider B4, for which the EC50 with huNav1.7α [8] worked out at 5.4 nM; with huNav1.7α + β1 [9], 11 nM. Also, the “Qpatch IC50 [M], HEK cells” value is 8.5e-08 M with huNav1.7α + β1 [10] and 1.8e-07 M in the experiment with rhNav1.7α + β1-β2-β3 [11]. Besides, the entries for the “Qpatch IC50” value with huNav1.7α + β1 [12] and in the experiment with rhNav1.7α + β1-β2-β3 [13] were 85 nM and 199 nM, respectively.

B5: F0103454D07 (parental)-FLAG-HIS6 (VHH)
VHH: EVQLVESGGGLVQPGGSLRLSCVASGGIININYIAWYRQTPGKQRDLVARISSDDTIKYGDSVKGRFAMSRDKVKNMVHLQMNSLTTEDTGVYVCSALITPWTGDTRTYWGRGTLVTVSS
In the case of B5, the “Qpatch IC50” value with huNav1.7α + β1 [1] was 38 nM.

B6: F0103387G05 (parental)-FLAG-HIS6 (VHH)
VHH: EVQLVESGGGLVQAGGSLRLSCDASGRILRIGYMRWHRQGAGKQREFVARITDDSATDYADSVKGRFTISRDNAKNTVYLQMNNLNPEDTAVYYCEALVTASVRGGSIHSGTYWGRGTLVTVSS
Turning to B6, the half-maximal effective concentration (EC50) is 4.7 nM with huNav1.7α+β1-β2-β3 [14]; 1.2 nM with huNav1.7α+β1 [2]; 1.7 nM in the experiment with huNav1.7α+β1 [15]; 3.1 nM with huNav1.7α+β1-β2-β3 [5]; 3.6 nM in [6]; 2.7 nM with huNav1.7α [16]. Besides, the binding result in the experiment with huNav1.5α, in the experiment with huNav1.6α, with huNav1.2α, in the experiment with huNav1.1α, in the experiment with huNav1.8α and in the experiment with huNav1.4α was “no binding” each time. For the same molecule, the binding result with huNav1.3α, with rhNav1.7α+β1-β2-β3 and with huNav1.5α+β1-β2-β3 was “no binding” throughout.

B7: F010302375 (bispecific antibody)
chain: DVQLVESGGGLVQPGGSLRLSCAASGSIFNINSMAWYRRAPGKQRELVASSTNGGSTNYADSVKGRFTISRDNAKRVYLQMNSLTPEDTAVYYCRALLQPSIYDISRTYWGQGTLVTVSSGGGGSGGGGSGGGGSGGGGSGGGGSGGGGSGGGGSGGGGSGGGGSGGGGSEVQLVESGGGLVQAGGSLRLSCAASGRAFSTLAMGWFRQAPGKEREFVAAISRNGNNSATGDSLKGRFTISRDSTKSTVFLQMNTLKPEDTAVYYCAAISTPSASHPYVRKESYRYWGQGTQVTVSSGAADYKDHDGDYKDHDIDYKDDDDKGAAHHHHHH
notes: also called F0103275B05(E1D, N93R)-50GS-F0103478E09(L108Q)-FLAG3-HIS6
Broadly, the IC50 is the concentration needed to halve the response being measured. For B7, the concentration for half-maximal inhibition (IC50) in the experiment with rhNav1.7α + β1-β2-β3 [17] was 6.5 nM; with huNav1.7α + β1-β2-β3 [18], 12 nM; in the experiment with huNav1.7α [19], 110 nM; in the experiment with huNav1.7α + β1 [20] it was 4.3 nM; with huNav1.7α + β1-β2-β3 [24], 10 nM. The “Qpatch IC50” value is 123 nM in the experiment with huNav1.7α [21], 2.6 nM with huNav1.7α + β1-β2-β3 [22], 2.8 nM with rhNav1.7α + β1-β2-β3 [23] and 93 nM with Rhesus Nav1.7α.
